The data set concerns the molecule itself. As to the kind of experiment: AUC; sedimentation velocity (30,000 rev/min) and sedimentation equilibrium (3200 and 4200 rev/min, 250 and 280 nm) of hMyD88^DD alone, 35 uM, 293 K, 20 mM Tris, 20 mM NaCl, pH 8.0, 5% glycerol.

B1: human MyD88 death domain construct (N-terminal death and intermediate domains of hMyD88, 1-151) (domain or fragment, UniProt Q99836 1-151, looked up)
chain: MAAGGPGAGSAAPVSSTSSLPLAALNMRVRRRLSLFLNVRTQVAADWTALAEEMDFEYLEIRQLETQADPTGRLLDAWQGRPGASVGRLLELLTKLGRDDVLLELGPSIEEDCQKYILKQQQEEAEKPLQVAAVDSSVPRTAELAGITTLD
notes: Myeloid differentiation primary response 88 (MyD88), human, residues 1-151: death domain plus a 30-residue segment of the intermediate domain; printed monomer mass 17.5 kDa; Forms open-ended helical filaments of several hundred subunits at 35 uM and above; The model in the map holds 103 residues per subunit and ends at Q121; also called hMyD88^DD; MyD88^DD; source: E. coli BL21 DE3 Rosetta 2, …
Consider B1, for which the binding result was “binds”.

The values are drawn from PMC7054835, “MyD88 Death-Domain Oligomerization Determines Myddosome Architecture: Implications for Toll-like Receptor Signaling” (Structure(London, England:1993), 2020).
